Experimental data published in patent US20250250357A1.

Legend:
[1] = target: monkey MSLN full-length protein (NCBI: XP_028696439.1) expressed on HEK293T-monkey MSLN cells (monkey); assay: FACS on HEK293T-monkey MSLN cells
[2] = target: monkey MSLN full-length protein expressed on HEK293T cells (HEK293T-monkey MSLN) (monkey); assay: FACS on HEK293T-monkey MSLN cells
[3] = target: human MSLN-R3-3 polypeptide (human); assay: ELISA; antibody 1 nM
[4] = target: human MSLN full-length protein (NCBI: AAH09272.1) on stably transfected CHO-K1 or HEK293T cells (human) (UniProt Q13421); assay: FACS on CHO-K1-hMSLN-2C8 cells; antibody […]
[5] = target: human MSLN full-length protein (NCBI: AAH09272.1) on stably transfected CHO-K1 or HEK293T cells (human) (UniProt Q13421); assay: FACS on CHO-K1-hMSLN-2C8 cells; antibody 4 nM
[6] = target: human MSLN full-length protein (NCBI: AAH09272.1) on stably transfected CHO-K1 or HEK293T cells (human) (UniProt Q13421); assay: FACS on CHO-K1-hMSLN-2C8 cells; antibody 20 nM
[7] = target: human MSLN full-length protein (NCBI: AAH09272.1) on stably transfected CHO-K1 or HEK293T cells (human) (UniProt Q13421); assay: FACS on CHO-K1-hMSLN-2C8 cells; antibody 0.8 nM
[8] = target: human MSLN full-length protein (NCBI: AAH09272.1) on stably transfected CHO-K1 or HEK293T cells (human) (UniProt Q13421); assay: FACS on CHO-K1-hMSLN-2C8 cells; antibody 100 nM
[9] = target: human MSLN full-length protein (NCBI: AAH09272.1) on stably transfected CHO-K1 or HEK293T cells (human) (UniProt Q13421); assay: FACS on CHO-K1-hMSLN-2C8 cells; antibody 0.032 nM
[10] = target: human MSLN full-length protein (NCBI: AAH09272.1) on stably transfected CHO-K1 or HEK293T cells (human) (UniProt Q13421); assay: FACS on CHO-K1-hMSLN-2C8 cells; antibody 0.0064 nM
[11] = target: human MSLN full-length protein (NCBI: AAH09272.1) on stably transfected CHO-K1 or HEK293T cells (human) (UniProt Q13421); assay: FACS on CHO-K1-hMSLN-2C8 cells; antibody 0.00128 nM
[12] = target: human MSLN on OVCAR3 tumor cells (human) (UniProt Q13421); assay: FACS, OVCAR3 cells
Sequence of human MSLN on OVCAR3 tumor cells (human) (Q13421 other isoform, or with tags, fused parts or gaps): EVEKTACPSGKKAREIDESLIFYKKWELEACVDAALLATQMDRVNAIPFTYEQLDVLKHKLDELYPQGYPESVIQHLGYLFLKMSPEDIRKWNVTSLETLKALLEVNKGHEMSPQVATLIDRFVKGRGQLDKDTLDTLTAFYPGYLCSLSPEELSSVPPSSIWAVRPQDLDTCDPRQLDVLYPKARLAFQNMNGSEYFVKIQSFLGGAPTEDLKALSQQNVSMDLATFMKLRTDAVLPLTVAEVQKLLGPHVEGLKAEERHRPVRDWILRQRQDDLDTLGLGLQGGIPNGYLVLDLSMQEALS

B1: S009-F1.59.1 (antibody, human IgG1, kappa, V domains shown)
VH: EVKLEGSGGGLVQPGGSMMLSCVATGFTFSSYWMNWVRQSPDRGLEWVAEIRLKSNGFAAFYAESVKGRFTISRDDSKSSVYLQMNNLRTEDTGIYYCTYFVHWGQGILVTVSE
VL: DIVLTQSPTSLAVSLGQRATISCRTSESVEYFGTILIQWYQQKPGQPPKLLIFGASNVESGVPARFSGSGSGTDFSLNIHPVEEEDIAMYFCQQNRKVPYTFGGGTTLELKR
**Q.** For B1, which Maximum mean fluorescence intensity [1] is on record?
**A.** 1420

B2: S009-F1.62.9 (antibody, human IgG1, kappa, V domains shown)
VH: EVQLQQSGADLVKPGASVKLSCTVFGLNFKDTFMHWVRQRPEQGLEWIGRIDPANDNSIYGPKFQDKATITADTSSNTAYLHLSSLTSEDTAVYYCLYFDNWGHGTTLTVSS
VL: DIVMTQAASSEPVTPGESVSISCRSDKSLLHSNGHNYLYWFLQRPGQSPHLLIYRMSNLASGVPDRFSGSGSGTAFTLRISRVEAEDVGVYYCMQHLEYPLTFGAGTKLELKR
**Q.** Which Maximum mean fluorescence intensity [1] does the source give for B2 here?
**A.** 965

B3: S009-F2.58.8 (antibody, human IgG1, kappa, V domains shown)
VH: QVQLLQSGAELAKPGASVKLSCKASGYTFTSYWVHWVKQRPGQGLEWIGYINPNSGYTKYNQKFKDKATLTADKSSSTAYMQLSSLTYEDSAVYYCADHYYGSSRDYFDYWGQGTTLTVSS
VL: QIVLTQSPAIMSASPGEKVTMTCSASSSVSYMYWYQQRPGSSPRLLIYDTSNLASGVPVRFSGSGSGTSYSLTISRMEAEDAATYYCQQWNSYPYTFGGGTKLEIKR
**Q.** Which Maximum mean fluorescence intensity [1] does the source give for B3 here?
**A.** 1000

B4: S009-F8-33.12 (antibody, human IgG1, kappa, V domains shown)
VH: EVQLQQSGAELVKPGASVKLSCTASAFNIKDYYMHWVKQRTEQGLEWIGRIDPEDGETKYAPKFQGKATITADTSSNTAYLQLSSLTSEDTAVYYCASGSGTGAMDYWGQGTSVTVSS
VL: DIVMTQSQKFMSTSVGDRVSITCKASQNVRTAVGWYQQKPGQSPKALIYLASNRHTGVPDRFTGSGSGTDFTLTISNVQSEDLADYFCLQHWNSPYTFGGGTKLVIKR
**Q.** B4 was tested. Which EC50 [2] did it give?
**A.** 0.64 nM

**Q.** And the Maximum mean fluorescence intensity [2]?
**A.** 106000

B5: S009-F8-36.12 (antibody, human IgG1, kappa, V domains shown)
VH: EVQLQQSGPELVKPGASVKISCKASGYTFTDYYMNWVKQSHGKSLEWIGDINPNNGGTSYNQKFKGKATLTVDKSSSTAYMELRSLTSEDSAVYYCASWGYGSSSRGYFDYWGQGTTLTVSS
VL: QIVLSQSPAILSASPGEKVTMTCRASSSVSYMHWYQQKPGSSPKPWIYATSNLASGVPARFSGSGSGTSYSLTISRVEAEDAATYYCQQWSSNPWTFGGGTKLEIKR
**Q.** Which Maximum mean fluorescence intensity [2] does the source give for B5 here?
**A.** 173

B6: Tab107 (YP3, hIgG1) (antibody, V domains shown)
VH: QEQLVESGGGLVQPGASLTLTCTASGIDFSRYYMCWVRQAPGKGLEGIACIYIGGSGSTYYASWAKGRFTISKASSTTVTLQMTSLTAADTATYFCARGTNLNYIFRLWGPGTLVTVSS
VL: DVVMTQTPSPVSAAVGGTVTIKCQASQSINNGLAWYQQKPGQPPRLLIYSASNLESGVPSRFKGSGSGTEFTLTISDLECDDAATYYCQCIWDGNSYVNAFGGGTEVVVRT
**Q.** How did the OD450 nm [3] turn out when B6 was run?
**A.** 0.07

**Q.** And the FACS fluorescence intensity [4]?
**A.** 264

**Q.** And the FACS fluorescence intensity [5]?
**A.** 2960

**Q.** What about the FACS fluorescence intensity [6] of the same binder?
**A.** 6930

**Q.** What about the FACS fluorescence intensity [7] of the same binder?
**A.** 767

**Q.** And the FACS fluorescence intensity [8]?
**A.** 7860

**Q.** And the FACS fluorescence intensity [9]?
**A.** 120

**Q.** And the FACS fluorescence intensity [10]?
**A.** 70

**Q.** What about the FACS fluorescence intensity [11] of the same binder?
**A.** 63

B7: F3.80.22-H1 (scFv, not shown: small tags and cut ends)
scFv: DIVMTQTPLSLPVTPGEPASISCRSSQSLEHNNGNTYLHWFLQKPGQSPQLLIYKVSNRFSGVPDRFSGSGSGTDFTLKISRVEAEDVGVYYCSQSTHVPFTFGQGTKLEIKGGGGSGGGGSGGGGSEVQLVQSGAEVKKPGATVKISCKVSGYTFTDYEIHWVQQAPGKGLEWMGAFDPEIGGSAYNQKFKDRVTITADKSTDTAYMELSSLRSEDTAVYYCTDYYGSSSGYFDVWGQGTTVTVSS
**Q.** With B7 as the binder, how does the Maximum MFI [12] read?
**A.** 471 MFI

B8: F3.80.22-H2 (scFv, not shown: small tags and cut ends)
scFv: DIVMTQTPLSLPVTPGEPASISCRSSQSLEHNNGNTYLHWFLQKPGQSPQLLIYKVSNRFSGVPDRFSGSGSGTDFTLKISRVEAEDVGVYYCSQSTHVPFTFGQGTKLEIKGGGGSGGGGSGGGGSEVQLVQSGAEVKKPGATVKISCKASGYTFTDYEIHWVQQAPGKGLEWMGAFDPEIGGSAYNQKFKDRVTITADKSTSTAYMELSSLRSEDTAVYYCTDYYGSSSGYFDVWGQGTTVTVSS
**Q.** For B8, which Maximum MFI [12] is on record?
**A.** 512 MFI

B9: F3.80.22-H3 (scFv, not shown: small tags and cut ends)
scFv: DIVMTQTPLSLPVTPGEPASISCRSSQSLEHNNGNTYLHWFLQKPGQSPQLLIYKVSNRFSGVPDRFSGSGSGTDFTLKISRVEAEDVGVYYCSQSTHVPFTFGQGTKLEIKGGGGSGGGGSGGGGSEVQLVQSGAEVKKPGATVKISCKASGYTFTDYEIHWVQQAPGKGLEWMGAFDPEIGGSAYNQKFKDRVTITADKSTSTAYMELSSLRSEDTAVYYCTDYYGSSSGYFDVWGTGTTVTVSS
**Q.** For B9, which Maximum MFI [12] is on record?
**A.** 502 MFI

B10: F3.80.22-H4 (scFv, not shown: small tags and cut ends)
scFv: DIVMTQTPLSLPVTPGEPASISCRSSQSLEHNNGNTYLHWFLQKPGQSPQLLIYKVSNRFSGVPDRFSGSGSGTDFTLKISRVEAEDVGVYYCSQSTHVPFTFGQGTKLEIKGGGGSGGGGSGGGGSEVQLVQSGAEVKKPGATVKISCKASGYTFTDYEIHWVQQAPGKGLEWMGAFDPEIGGSAYNQKFKDRVTITADKSSSTAYMELSSLRSEDTAVYYCTDYYGSSSGYFDVWGTGTTVTVSS
**Q.** How did the Maximum MFI [12] turn out when B10 was run?
**A.** 505 MFI

B11: F3.80.22-H6 (scFv, not shown: small tags and cut ends)
scFv: DIVMTQTPLSLPVTPGEPASISCRSSQSLEHNDGNTYLHWFLQKPGQSPQLLIYKVSNRFSGVPDRFSGSGSGTDFTLKISRVEAEDVGVYYCSQSTHVPFTFGQGTKLEIKGGGGSGGGGSGGGGSEVQLVQSGAEVKKPGATVKISCKASGYTFTDYEIHWVQQAPGKGLEWMGAFDPEIGGSAYNQKFKDRVTITADKSTSTAYMELSSLRSEDTAVYYCTDYYGSSSGYFDVWGQGTTVTVSS
**Q.** How did the Maximum MFI [12] turn out when B11 was run?
**A.** 473 MFI

B12: F3.80.22-H7 (scFv, not shown: small tags and cut ends)
scFv: DIVMTQTPLSLPVTPGEPASISCRSSQSLEHNDGNTYLHWFLQKPGQSPQLLIYKVSNRFSGVPDRFSGSGSGTDFTLKISRVEAEDVGVYYCSQSTHVPFTFGQGTKLEIKGGGGSGGGGSGGGGSEVQLVQSGAEVKKPGATVKISCKASGYTFTDYEIHWVQQAPGKGLEWMGAFDPEIGGSAYNQKFKDRVTITADKSTSTAYMELSSLRSEDTAVYYCTDYYGSSSGYFDVWGTGTTVTVSS
**Q.** B12 was tested. Which Maximum MFI [12] did it give?
**A.** 479 MFI

B13: F3.80.22-H8 (scFv, not shown: small tags and cut ends)
scFv: DIVMTQTPLSLPVTPGEPASISCRSSQSLEHNDGNTYLHWFLQKPGQSPQLLIYKVSNRFSGVPDRFSGSGSGTDFTLKISRVEAEDVGVYYCSQSTHVPFTFGQGTKLEIKGGGGSGGGGSGGGGSEVQLVQSGAEVKKPGATVKISCKASGYTFTDYEIHWVQQAPGKGLEWMGAFDPEIGGSAYNQKFKDRVTITADKSSSTAYMELSSLRSEDTAVYYCTDYYGSSSGYFDVWGTGTTVTVSS
**Q.** Which Maximum MFI [12] does the source give for B13 here?
**A.** 502 MFI

B14: F3.80.22-H17 (scFv, not shown: small tags and cut ends)
scFv: EVQLVQSGAEVKKPGATVKISCKVSGYTFTDYEIHWVQQAPGKGLEWMGAFDPEIGGSAYNQKFKDRVTITADKSTDTAYMELSSLRSEDTAVYYCTDYYGSSSGYFDVWGQGTTVTVSSGGGGSGGGGSGGGGSDIVMTQTPLSLPVTPGEPASISCRSSQSLEHNDGNTYLHWFLQKPGQSPQLLIYKVSNRFSGVPDRFSGSGSGTDFTLKISRVEAEDVGVYYCSQSTHVPFTFGQGTKLEIK
**Q.** How did the Maximum MFI [12] turn out when B14 was run?
**A.** 456 MFI

B15: F3.38.10-L2H3a (scFv, not shown: small tags and cut ends)
scFv: DIVMTQSPDSLAVSLGERATINCRSSQSLIHSDGNTYLQWYQQKPGQSPKLLIYKVSNRFSGVPDRFSGSGSGTDFTLTISSLQAEDVAVYYCSQTTHVPFTFGQGTKLEIKGGGGSGGGGSGGGGSEVQLVQSGAEVKKPGASVKVSCKASGYIFTDYYMNWVRQAPGQRLEWMGVINPKQGVISHNQKFKGRVTITVDKSANTAYMELSSLRSEDTAVYYCANYGSRFYAMDYWGQGTTVTVSS
**Q.** How did the Maximum MFI [12] turn out when B15 was run?
**A.** 499 MFI
